Measurements taken from article PMC7826282.

Target: mutant forms of RUVBL1 and RUVBL2
Test: co-IP

B1: RL-NOP58 (natural protein)
chain: MLVLFETSVGYAIFKVLNEKKLQEVDSLWKEFETPEKANKIVKLKHFEKFQDTAEALAAFTALMEGKINKQLKKVLKKIVKEAHEPLAVADAKLGGVIKEKLNLSCIHSPVVNELMRGIRSQMDGLIPGVEPREMAAMCLGLAHSLSRYRLKFSADKVDTMIVQAISLLDDLDKELNNYIMRCREWYGWHFPELGKIISDNLTYCKCLQKVGDRKNYASAKLSELLPEEVEAEVKAAAEISMGTEVSEEDICNILHLCTQVIEISEYRTQLYEYLQNRMMAIAPNVTVMVGELVGARLIAHAGSLLNLAKHAASTVQILGAEKALFRALKSRRDTPKYGLIYHASLVGQTSPKHKGKISRMLAAKTVLAIRYDAFGEDSSSAMGVENRAKLEARLRTLEDRGIRKISGTGKALAKTEKYEHKSEVKTYDPSGDSTLPTCSKKRKIEQVDKEDEITEKKAKKAKIKVKVEEEEEEKVAEEEETSVKKKKKRGKKKHIKEEPLSEEEPCTSTAIASPEKKKKKKKKRENED
How did the co-IP efficiency turn out when B1 was run?
Its co-IP efficiency is under 0.1%.
